Laboratory results from article PMC8748714 (2022).
Changes are numbered by the printed parent chain. No end group written: not given here.

Tests used:
GLP-1R S206A = biological target: T1, GLP-1R S206A (Homo sapiens)
T1 chain: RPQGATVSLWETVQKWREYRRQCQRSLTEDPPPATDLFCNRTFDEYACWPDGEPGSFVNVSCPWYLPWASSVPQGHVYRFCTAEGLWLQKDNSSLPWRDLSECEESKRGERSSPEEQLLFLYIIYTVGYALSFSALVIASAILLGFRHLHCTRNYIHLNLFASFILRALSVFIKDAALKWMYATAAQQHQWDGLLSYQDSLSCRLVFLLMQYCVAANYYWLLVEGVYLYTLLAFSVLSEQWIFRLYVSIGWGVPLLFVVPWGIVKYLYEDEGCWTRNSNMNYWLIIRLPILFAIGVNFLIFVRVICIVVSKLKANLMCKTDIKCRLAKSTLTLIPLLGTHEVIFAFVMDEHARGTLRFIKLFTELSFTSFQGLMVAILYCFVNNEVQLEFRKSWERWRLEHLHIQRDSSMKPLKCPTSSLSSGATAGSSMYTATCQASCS

GLP-1R D198A = biological target: T2, GLP-1R D198A (Homo sapiens)
T2 chain: T1 chain with D175A, A183S

GLP-1R L141A = biological target: T3, GLP-1R L141A (Homo sapiens)
T3 chain: T1 chain with L118A, A183S

GLP-1R Q210A = biological target: T4, GLP-1R Q210A (Homo sapiens)
T4 chain: T1 chain with A183S, Q187A

GLP-1R L142A = biological target: T5, GLP-1R L142A (Homo sapiens)
T5 chain: T1 chain with L119A, A183S

Binder	IC50 (GLP-1R S206A) [nM]	IC50 (GLP-1R D198A) [nM]	IC50 (GLP-1R L141A) [nM]	IC50 (GLP-1R Q210A) [nM]	IC50 (GLP-1R L142A) [nM]
HAEGTFTSDVSSYLEGQAAKEFIAWLVKGR (not fully specified (C-terminus)) [glucagon-like peptide-1]	4.9	155	14.1	–	–
HSQGTFTSDYSKYLDSRRAQDFVQWLMNTKRNRNNIA [oxyntomodulin]	16.6	708	603	66.1	81.3
